Assay: yeast display, Sf9 membrane polyspecificity reagent, FACS + sequencing; frameworks hold sequencing errors
How it was run: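 A synthetic nanobody library was expressed on Saccharomyces cerevisiae BJ5465 by galactose induction for 36–48 hours. The library was stained for 1 hour at 4 °C with 10% biotinylated, detergent-solubilized Sf9 membrane reagent and enriched with streptavidin microbeads before FACS. Low and high (top ~1%) gates were set on anti-HA fluorescence for expression and streptavidin fluorescence for reagent binding, and each polyreactivity label reflects the gate of origin.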

| Sequence | polyreactivity (PSR sort gate) |
| --- | --- |
| QVQLVESGGGLVQAGGSLRLSCAASGSIFDYYAMGWYRQAPGKERELVAAISSSGARTSYADSVKGRFTISRDNAKNTVYLQMNSLKPEDTAVYYCAAPYRSLKTGRYDYWGQGTQVTVSS | high polyreactivity |
| QVQLVESGGGLVQAGGSLRLSCAASGSIFDYYAMGWYRQAPGKERELVAAISWSGGSTYYADSVKGRFTISRDNAKNTVYLQMNSLKPEDTAVYYCAALSLAYHEYDYWGLGTQVTVSS | high polyreactivity |
| QVQLVESGGGLVQAGGSLRLSCAASGSIFDYYAMGWYRQAPGKERELVADITSGGSTNYADSVKGRFTISRDNAKNTVYLQMNSLKPEDTAVYYCNALASRYPAYYYWGQGTQVTVSS | low polyreactivity |
| QVQLVESGGGLVQAGGSLRLSCAASGSIFDYYAMGWYRQAPGKERELVASINSSGTGTYYADSVKGRFTISRDNAKNTVYLQMNSLKPEDTAVYYCATRQAVGYSSGRGYGYWGQGTQVTVSS | low polyreactivity |
| QVQLVESGGGLVQAGGSLRLSCAASGSIFDYYAMGWYRQAPGKERELVASITWSGGRTSYADSVKGRFTISRDNAKNTVYLQMNSLKPEDTAVYYCAAKLWSYAYQHKRVWYYYWGQGTQVTVSS | high polyreactivity |
| QVQLVESGGGLVQAGGSLRLSCAASGSIFDYYAMGWYRQAPGKETEFVADICSSGTSTYYADSVKGRFTISRDNAKNTVYLQMNSLKPEDTAVYYCNSELDSWLSYVVAYFARFDYWGQGTQVTVSS | high polyreactivity |
| QVQLVESGGGLVQAGGSLRLSCAASGSIFDYYTMGWYRQAPGKERELVAAITRSGGRTYYADSVKGRFTISRDYAKNTDYLLMNSLKPEDTAVYNCSTGAVSRFGNGPYDFWGQGTQVTVSS | high polyreactivity |
| QVQLVESGGGLVQAGGSLRLSCAASGSIFEFNAMGWYRQAPGKERELVAAITWGGGSTYYADSVKGRFTISRDNAKNTVYLQMNSLKPEDTAVYYCNAAYGRYRYDYWGQGTQVTVSS | low polyreactivity |
| QVQLVESGGGLVQAGGSLRLSCAASGSIFEFNTMGWYRQAPGKERELVAAISSSGGRTYYADSVKGRFTISRDNAKNSVYLQMNSLKPEDTAVYYCNARRFVHNPDYDYWGQGTQVTVSS | high polyreactivity |
| QVQLVESGGGLVQAGGSLRLSCAASGSIFEGNAMGWYRQAPGKEREFVAAITKRGGSTYYADSVKGRFTISRDNAKITVYLQMNSLKTEDTAVYYCAKGYRRVFGPFYYWGQGTQVTVSS | low polyreactivity |
| QVQLVESGGGLVQAGGSLRLSCAASGSIFEGYAMGWYRQAPGKERELVAAISWSSARTYYADSVKGRFTISRDNAKNTVYLQMNSLKPEDTAVYYCNAVARNNRNSRQRIPYDYWGQGTQVTVSS | high polyreactivity |
| QVQLVESGGGLVQAGGSLRLSCAASGSIFEGYVMGWYRQAPGKERELVAAITTGGGSTYYADSVKGRFTISRDNAKKTVYLQMNSLKPEDTAVYYCAKDYWFGYEYWGQGTQVTVSS | low polyreactivity |
| QVQLVESGGGLVQAGGSLRLSCAASGSIFEGYVMGWYRQAPGKERELVATISFSGGSTYYADSVKGRFTISRDNAKNTVYLQMNSLKPEDTAVYYCNALVYHTKGDYGYWGQGTQVTVSS | low polyreactivity |
| QVQLVESGGGLVQAGGSLRLSCAASGSIFEGYVMGWYRQEPGKERELVATISFSGGSTYYADSVKGRFTISRDNAKTTVYLQMNSLKPEDTAVYYCNALVYHTKGDYGYWGQGTQVTVSS | low polyreactivity |
| QVQLVESGGGLVQAGGSLRLSCAASGSIFEINAKGWYRQAPGKERELVADIRRGDSTNYADSVKGRFTISRDNAKNTVYLQMNSLKPEDTAVYYCAAYHRLFDYDYWGQGTQVTVSS | high polyreactivity |
| QVQLVESGGGLVQAGGSLRLSCAASGSIFEIYAMGWYRQAPGKERELVASITWSGGSTYYADSVKGRFTISRDNAKNTVYLQMNSLKPEDTAVYYCATDKLYGRTVRMDYWGQGTQVTVSS | low polyreactivity |
| QVQLVESGGGLVQAGGSLRLSCAASGSIFEIYAMGWYRQAPGKERQLVASITWSGGSTYYADSVKGRFTISRDNAKNTVYLQMNSLKPEDTAVYYCATDKLYGRTVRMDYWGQGTQVTVSS | low polyreactivity |
| QVQLVESGGGLVQAGGSLRLSCAASGSIFENYAMGWYRQAPGKERELVAAISSSGDSTYYADSVKGRFTISRDNAKNTVYLQMNSLKPEDTAVYYCAAEISLSRSDRIESYDYWGQGTQVTVSS | low polyreactivity |
| QVQLVESGGGLVQAGGSLRLSCAASGSIFEPNAMGWYRQAPGKEREFVAAISGSGGSTYYADSVKGRFTISRDNAKNTVYLQMNSLKPEDTAVYYCATRGKRSYFRTFYYWGQGTQVTVSS | high polyreactivity |
| QVQLVESGGGLVQAGGSLRLSCAASGSIFEPNAMGWYRQAPGTERELVAAISWNDGDTYYADSVKGRFTISRDNAKNTVYFQMNSLKPEDPAVYYCAAAISLYSYDYWGQGTQVTVSS | low polyreactivity |
| QVQLVESGGGLVQAGGSLRLSCAASGSIFEPNDMGWYRQAPGKEREFVAAISGSGGSTYYADSVKGRFTISRDNAKNTVYLQINSLKPEDTAVYYCANRGKRSYFRTFYYWGHGTQVTVSS | high polyreactivity |
| QVQLVESGGGLVQAGGSLRLSCAASGSIFEPYAMGWYRTAPGKERELVAAISSGGSTNYADSVKGRFTISRDNAKNTVYLQMNSLKPEVTAVYYCAAAYYTVGWLYYDYWYPFAYYYWGQGTQVTVSS | low polyreactivity |

| Sequence | polyreactivity (PSR sort gate) |
| --- | --- |
| QVQLVESGGGLVQAGGSLRLSCAASGSIFEQYTMGWYRQAPGKERELVAAISRRYGRTYYADSVKGRFTISRDNAKNTVYLQMNSLKPEETAVYYCNTVYYGNFYSTRYDYWGHGTQVTVSS | high polyreactivity |
| QVQLVESGGGLVQAGGSLRLSCAASGSIFERYAMGWYRQAPGKERELVAGISTDGSTYADSVKGRFTISRDNAKNTVYLQMNSLKPEDTAVYYCNKRRGFSAWYDYWGQGTQVTVSS | low polyreactivity |
| QVQLVESGGGLVQAGGSLRLSCAASGSIFERYAMVWYRQAPGKERELVAAISWSGSSTYYADSVKGRFTISRDNAKNTVYLQMNSLKPEDTAVYYCNKVWIDTGMEYWGQGTQVTVSS | low polyreactivity |
| QVQLVESGGGLVQAGGSLRLSCAASGSIFEWYAMGWYRLAPGKERELVAVFSVRGGSTYYADSVKGRFTMSRENAKNTVYLQMNSLKPEDTAVYYCAADRVAPYYGHKRFYSGGQGTQVTVSS | high polyreactivity |
| QVQLVESGGGLVQAGGSLRLSCAASGSIFEWYAMGWYRQAPGKERELVAAINSGGSTYYADSVKGRFTISRDNAKNTVYLQMNSLKPEDTAVYYCNADTLLQDRLGDWYDYDYWGQGTQVTVSS | low polyreactivity |
| QVQLVESGGGLVQAGGSLRLSCAASGSIFEYNAMGWYRQAPGKERELVAAITRGGNTYYADSVKGRFTISRDNAKNTVYLQMNSLKPEDTAVYYCAAVQWYGYPYYSWGQGTQVTVSS | low polyreactivity |
| QVQLVESGGGLVQAGGSLRLSCAASGSIFEYYAMGWYRQAPGKERELVAAISTGGSTYYADSVKGRFTISRDNAKNTVYLQMNSLKPEDTAVYYCAAEDYHPGADTVGTGYDYWGQGTQVTVSS | low polyreactivity |
| QVQLVESGGGLVQAGGSLRLSCAASGSIFEYYTMGWYRQAPGKERELVAGISWSGGSTYYADSVKGRFTISRDNAKNTVYLQMNSLKPEDTAVYYCAARSRSGRQEYYYWGQGTQVTVSS | high polyreactivity |
| QVQLVESGGGLVQAGGSLRLSCAASGSIFFAYAMGRYRQAPGKERELVAAITSGVSTNYADSVKGRFTISRDNAKNTVYLQMNILKPEDTAVYFCNADFDYGFDAGVAVQVVINVYWGQGTEVTVSS | low polyreactivity |
| QVQLVESGGGLVQAGGSLRLSCAASGSIFFAYSMGWYRQAPGKERELVAAISWSDGSTYYADSVKGRFTISRDNAKNTVYLQMNSLKPEDTAVYYCDKVYRSIGPNVSRYGLSYYYWGQCTQVTVSS | low polyreactivity |
| QVQLVESGGGLVQAGGSLRLSCAASGSIFFDGNAMGWYRQAPGKERELVAAISVSGGSTYYADSVKGRFTISRDNAKNTVYLQMNSLKPEDTAVYYCAKYPSKSYVPGDYWGQGTQVTVSS | low polyreactivity |
| QVQLVESGGGLVQAGGSLRLSCAASGSIFFEYAMGWYRQAAGKERELVAAIDVGGGGTDYADSVKGRFTISRDNAKNTVYLQMNSLKPEDTAVYYCAAQDYYYFGIGASYDYWGQGTQVTVSS | low polyreactivity |
| QVQLVESGGGLVQAGGSLRLSCAASGSIFFFNAMGWYRQAPGKVREFVAAITSSSGRTYYADSVKGRFTISRDNAKNTVYLQMNSLKPEDTAVYYCAAQVPEDTETVDYWGQGTQVTVSS | low polyreactivity |
| QVQLVESGGGLVQAGGSLRLSCAASGSIFFGNAMGWYRQAPGKERELVAAISTTGGSTYYADSVKGRFTISRDNEKNTVYLQMNSLKPEDTAVYYCNADRATWWEQWWYDYWGHGTQVTVSS | low polyreactivity |
| QVQLVESGGGLVQAGGSLRLSCAASGSIFFINAMGWYRQAPGKERELVAAISSGGTTYYADSVKGRFTISRDNAKNTVYLQMNSLKPEDTAVYYCNAAGFPYAHTFFKGLVEYDSWGQGTQVTVSS | low polyreactivity |
| QVQLVESGGGLVQAGGSLRLSCAASGSIFFLYAMGWYRQAPGKEWELVAAISGGGGSTYYADSVKGRFTISRDNAKNTVYFQMNCLKPEDTAVYNSAARTRVTKREYDYWGQGTQVTVSS | high polyreactivity |
| QVQLVESGGGLVQAGGSLRLSCAASGSIFFLYARGWYRQAPGKERELVAAISRSGGNTYYADSVKGRFTISRDNAKNSVYLQMNSLKPEDTAVYYCAADGVHRGGRGGYWGQGTQVTVSS | high polyreactivity |
| QVQLVESGGGLVQAGGSLRLSCAASGSIFFPNAMGWYRQAPGKERELVAAINWSGDSTYYADSVKGRFTISRDNAKNTVYLQMNSLKPEDTAVYYCNATYPWFDYDYWGQGTQVTVSS | low polyreactivity |
| QVQLVESGGGLVQAGGSLRLSCAASGSIFFPYAMGWSRQAPGKERELVAAITYGGGSTYYADSVKGRFTISRDNAKNTVYLQMNSLIPEDTAVYYCAAAVSYWRHGYQLSYDYWGQGTQVTVSS | high polyreactivity |
| QVQLVESGGGLVQAGGSLRLSCAASGSIFFPYAMGWYRQAPGKERELVAAISWRGGITYYADSVKGRFTISRDNAKNTVYLQMNSLKPEDTAVYYCAADGPYTGDGALDYWGQGTQVTVSS | high polyreactivity |
| QVQLVESGGGLVQAGGSLRLSCAASGSIFFPYAMGWYRQAPGKERELVAAISYSGTSTYYADSVKGRFTISRDNAKNTVYLQMNSLKPEDTAVYYCAAYSRYYASYDYWGQGTQVTVSS | high polyreactivity |

Reference: the nanobody polyreactivity screen of Harvey et al. (2022)
